Source: article PMC9803922, “Seawater fish use an electrogenic boric acid transporter, Slc4a11A, for boric acid excretion by the kidney” (The Journal of Biological Chemistry, 2022)

Substrate: OB(O)O
Assay: two-electrode voltage clamp, boric acid-elicited currents in Xenopus oocytes
Assay type: cell-based, Takifugu obscurus
Details: total boric acid (B(OH)3 + B(OH)4-), Vh +60 mV, pH 7.5, 18 °C, Na+-independent electrogenic transport

B1: Slc4a11A (mfSlc4a11A) (Takifugu obscurus) (protein)
chain: MDMLSQEMELKDEKKEDYGEDSDAIHIYDTEAYISVSDPDRPGFGLLNTTRKYVKPMNFQEEVRAHRDLDNFLAQASILLDERATTLDEVLRRMLAHLLEEGRESCDPDEVMSSVFTDAGGKDFDVHLLSETIQGVTSTSTGIHYQQSWLCILTNLRSLQRRHVCIARLDRPQNWGVNCCEARYVIFILAPPRTKSTKTAIELGRTFATMFSDISFRQRLLETKTQEEFKQELLSYRQKLSTVQEKPVEEEEEDSDPRRGKALQCKDFLKAGKGVYRDLRRRLPLYPSDFTDGLTGKDRCLLKYTTTAIFLYIAILLPAIAFGSLNDESTRGEIDVQKTIVGQSIGGVIYALFAGSPLVIPLTTAPLAIFISVIRGICDDYDLDFDSFYACIGLWNSLFLILGGLFNVSLLMKLFKRSTEEVIALFISIAFVGDAVKGTVKIFQHFYRGPTLTTTNSTLVFQQLEGILNQTNNQTGNGLGEHGQADGHTLVFLPQSLVECTREMPILCLLLMLGTLWLGYTLYLIRRSPYLNDKIREVVSDCALPISVVICSFIGSYLFLNIKLPVFSVHDGPIFNYPPFDKLSGMSALSAVGLGFLLALLIFIDQNIVISLTHVPEHKLLKGTAFHWDLMLTGFINILMSCLGLPWMHAAFPHSSLHARQLAKVEQHVENGHLYTTIVSVKETRLTALAANILIGLSAFMLPIPLQWIPKPVLYGLFLYIAATSLDGNQMVDRMCLLLKEQTSYPPTHYVRRVPQRKVHFFTGVQMIQLIILCAFGMYPLPYMKMVFPLLMILLVPIRTSLLPKMIDAKYLDIMDAQHM
notes: full-length cDNA in pGEMHE, untagged, expressed in Xenopus laevis oocytes; 820 residues; C-terminal region antigen peptide PKMIDAKYLDIMDAQHM
B1 was tested. Which Km did it give?
The Km was 6.5 ± 0.6 mM.
